Experiments:
[1] = target: T1, cAMP receptor protein from Mycobacterium tuberculosis (CRPMTB), wildtype (Mycobacterium tuberculosis), P9WMH3; assay: SEC; details: remark: other sources report otherwise
T1 chain: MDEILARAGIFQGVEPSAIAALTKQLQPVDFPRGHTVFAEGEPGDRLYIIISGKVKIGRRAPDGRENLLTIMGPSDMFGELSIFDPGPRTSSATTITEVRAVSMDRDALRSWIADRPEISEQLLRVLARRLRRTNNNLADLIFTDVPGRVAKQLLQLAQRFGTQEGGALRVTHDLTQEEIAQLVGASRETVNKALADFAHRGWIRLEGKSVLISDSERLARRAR

[2] = target: T1, cAMP receptor protein from …; assay: fluorescence polarisation; fluorescence anisotropy, stoichiometric titration; CRPMTB titrated into 200 nM fluorescein-labelled 32-bp serC promoter DNA; 75 mM KCl, 50 mM HEPES, 1 mM EDTA, pH 7.6; 0 mM cAMP; details: remark: other sources report otherwise
[3] = target: T1, cAMP receptor protein from …; assay: fluorescence polarisation; fluorescence anisotropy; CRPMTB titrated into 3 nM fluorescein-labelled 32-bp serC promoter DNA (full site); 75 mM KCl, 50 mM HEPES, 1 mM EDTA, pH 7.6; 1 mM cAMP; second transition read as high-order oligomers on DNA; apparent; details: remark: other sources report otherwise
[4] = target: T1, cAMP receptor protein from …; assay: fluorescence polarisation; fluorescence anisotropy; CRPMTB titrated into 3 nM fluorescein-labelled 32-bp serC promoter DNA (full site); 75 mM KCl, 50 mM HEPES, 1 mM EDTA, pH 7.6; 0 mM cAMP; second transition ([CRP] > 100 nM) read as free CRPMTB joining the specific CRPMTB-DNA complex (high-order oligomers on DNA); apparent; details: remark: other sources report otherwise
SEC = target: the molecule itself; assay: SEC
CRPMTB D63H [5] = target: T2, CRPMTB D63H (Mycobacterium tuberculosis, UniProt P9WMH3 1-224, D63H); assay: fluorescence anisotropy; no cAMP; 75 mM KCl, 50 mM HEPES, 1 mM EDTA, pH 7.6; […]; temperature not stated; details: protein: recombinant; tags: His-tag (pET-3a); chain copies: 2; label: fluorescein; blunt
T2 sequence: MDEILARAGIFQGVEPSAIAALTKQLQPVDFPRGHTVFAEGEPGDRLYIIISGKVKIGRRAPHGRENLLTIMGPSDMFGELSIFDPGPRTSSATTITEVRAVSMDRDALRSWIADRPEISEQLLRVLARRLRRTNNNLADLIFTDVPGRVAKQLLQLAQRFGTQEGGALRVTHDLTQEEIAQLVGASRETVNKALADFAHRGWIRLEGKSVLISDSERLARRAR

CRPMTB A61I [6] = target: T3, CRPMTB A61I (Mycobacterium tuberculosis, UniProt P9WMH3 1-224, A61I); assay: as above; details: protein: recombinant; tags: His-tag (pET-3a); chain copies: 2; label: fluorescein; blunt
T3 sequence: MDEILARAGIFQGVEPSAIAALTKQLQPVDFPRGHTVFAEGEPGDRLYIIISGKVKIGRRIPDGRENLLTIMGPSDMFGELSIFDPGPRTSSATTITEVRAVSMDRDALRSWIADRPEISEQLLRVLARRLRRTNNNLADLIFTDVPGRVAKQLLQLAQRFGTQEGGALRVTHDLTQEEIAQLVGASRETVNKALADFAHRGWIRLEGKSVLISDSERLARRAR

CRPMTB A61H [7] = target: T4, CRPMTB A61H (Mycobacterium tuberculosis, UniProt P9WMH3 1-224, A61H); assay: as above; details: protein: recombinant; tags: His-tag (pET-3a); chain copies: 2; label: fluorescein; blunt
T4 sequence: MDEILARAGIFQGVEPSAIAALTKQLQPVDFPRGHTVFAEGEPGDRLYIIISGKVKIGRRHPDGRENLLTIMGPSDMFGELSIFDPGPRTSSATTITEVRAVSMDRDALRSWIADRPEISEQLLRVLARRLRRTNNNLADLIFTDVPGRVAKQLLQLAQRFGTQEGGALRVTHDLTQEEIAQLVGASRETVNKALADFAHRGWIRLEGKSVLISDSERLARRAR

CRPMTB T70F [8] = target: T5, CRPMTB T70F (Mycobacterium tuberculosis, UniProt P9WMH3 1-224, T70F); assay: as above; details: protein: recombinant; tags: His-tag (pET-3a); chain copies: 2; label: fluorescein; blunt
T5 sequence: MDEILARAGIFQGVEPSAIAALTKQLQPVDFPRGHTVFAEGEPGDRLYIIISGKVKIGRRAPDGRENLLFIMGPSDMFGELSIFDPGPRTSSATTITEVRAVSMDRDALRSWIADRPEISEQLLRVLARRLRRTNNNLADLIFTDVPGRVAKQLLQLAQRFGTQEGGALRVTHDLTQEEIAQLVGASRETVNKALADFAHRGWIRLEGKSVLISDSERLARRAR

CRPMTB D63H [9] = target: T2, CRPMTB D63H; assay: fluorescence anisotropy; 1 mM cAMP; 75 mM KCl, 50 mM HEPES, 1 mM EDTA, pH 7.6; […]; temperature not stated; details: protein: recombinant; tags: His-tag (pET-3a); chain copies: 2; label: fluorescein; blunt
CRPMTB A61I [10] = target: T3, CRPMTB A61I; assay: as above; details: protein: recombinant; tags: His-tag (pET-3a); chain copies: 2; label: fluorescein; blunt
CRPMTB A61H [11] = target: T4, CRPMTB A61H; assay: as above; details: protein: recombinant; tags: His-tag (pET-3a); chain copies: 2; label: fluorescein; blunt
CRPMTB T70F [12] = target: T5, CRPMTB T70F; assay: as above; details: protein: recombinant; tags: His-tag (pET-3a); chain copies: 2; label: fluorescein; blunt

B1: cAMP receptor protein from Mycobacterium tuberculosis (CRPMTB), wildtype, P9WMH3 (natural protein)
chain: MDEILARAGIFQGVEPSAIAALTKQLQPVDFPRGHTVFAEGEPGDRLYIIISGKVKIGRRAPDGRENLLTIMGPSDMFGELSIFDPGPRTSSATTITEVRAVSMDRDALRSWIADRPEISEQLLRVLARRLRRTNNNLADLIFTDVPGRVAKQLLQLAQRFGTQEGGALRVTHDLTQEEIAQLVGASRETVNKALADFAHRGWIRLEGKSVLISDSERLARRAR
Binder B1 has a stoichiometry N [1] of 2, a stoichiometry N [2] of over 4 and an apparent K (1/[CRP]) at the boundary of oligomer formation on DNA [3] of 6e+06 M⁻¹. The apparent K (1/[CRP]) at the boundary of oligomer formation on DNA [4] was 1.5e+07 M⁻¹.

B2: CRPMTB A61H (natural protein)
chain: MDEILARAGIFQGVEPSAIAALTKQLQPVDFPRGHTVFAEGEPGDRLYIIISGKVKIGRRHPDGRENLLTIMGPSDMFGELSIFDPGPRTSSATTITEVRAVSMDRDALRSWIADRPEISEQLLRVLARRLRRTNNNLADLIFTDVPGRVAKQLLQLAQRFGTQEGGALRVTHDLTQEEIAQLVGASRETVNKALADFAHRGWIRLEGKSVLISDSERLARRAR
With B2 the “stoichiometry N” value (SEC) was 2.

B3: CRPMTB A61I (natural protein)
chain: MDEILARAGIFQGVEPSAIAALTKQLQPVDFPRGHTVFAEGEPGDRLYIIISGKVKIGRRIPDGRENLLTIMGPSDMFGELSIFDPGPRTSSATTITEVRAVSMDRDALRSWIADRPEISEQLLRVLARRLRRTNNNLADLIFTDVPGRVAKQLLQLAQRFGTQEGGALRVTHDLTQEEIAQLVGASRETVNKALADFAHRGWIRLEGKSVLISDSERLARRAR
With B3 the “stoichiometry N” value (SEC) was 2.

B4: CRPMTB D63H (natural protein)
chain: MDEILARAGIFQGVEPSAIAALTKQLQPVDFPRGHTVFAEGEPGDRLYIIISGKVKIGRRAPHGRENLLTIMGPSDMFGELSIFDPGPRTSSATTITEVRAVSMDRDALRSWIADRPEISEQLLRVLARRLRRTNNNLADLIFTDVPGRVAKQLLQLAQRFGTQEGGALRVTHDLTQEEIAQLVGASRETVNKALADFAHRGWIRLEGKSVLISDSERLARRAR
With B4 the “stoichiometry N” value (SEC) was 2.

B5: CRPMTB T70F (natural protein)
chain: MDEILARAGIFQGVEPSAIAALTKQLQPVDFPRGHTVFAEGEPGDRLYIIISGKVKIGRRAPDGRENLLFIMGPSDMFGELSIFDPGPRTSSATTITEVRAVSMDRDALRSWIADRPEISEQLLRVLARRLRRTNNNLADLIFTDVPGRVAKQLLQLAQRFGTQEGGALRVTHDLTQEEIAQLVGASRETVNKALADFAHRGWIRLEGKSVLISDSERLARRAR
With B5 the “stoichiometry N” value (SEC) was 2.

B6: serC32 full-site promoter (dsDNA)
DNA 1: GCGCGTAGTGTGAACAAGCTCACATGCAAGCC
DNA 2: GGCTTGCATGTGAGCTTGTTCACACTACGCGC
B6 was tested, and the Ka (CRPMTB D63H [5]) was 4.53 ± 0.04 10^8 M-1, the Ka (CRPMTB A61I [6]) was 2.71 ± 0.02 10^8 M-1 and the Ka (CRPMTB A61H [7]) was 4.03 ± 0.08 10^8 M-1. For the same binder, the Ka (CRPMTB T70F [8]) was 4.42 ± 0.04 10^8 M-1, the Ka (CRPMTB D63H [9]) was 4.66 ± 0.06 10^8 M-1 and the Ka (CRPMTB A61I [10]) was 3.57 ± 0.03 10^8 M-1. For the same binder, the Ka (CRPMTB A61H [11]) was 2.95 ± 0.05 10^8 M-1 and the Ka (CRPMTB T70F [12]) was 2.75 ± 0.02 10^8 M-1.
